# Test results taken from patent US20070105771A1 (Y S THERAPEUTICS, published 2007).
# Where a chain is given by its changes, count along the chain named.
# B1: Fab comprising X377 VL and CM03 VH (Fab, V domains shown)
# VH: QVKLQESGPGLVQPSQTLSITCTVSGFSLTTYGVHWVRQSPGKGLEWLGVIWGGGRTDYDAAFISRLSISKDNSKSQVFFKMNSLQANDTAIYYCVRNRHDWFDYWGQGTTVTVSS
# VL: EIELTQSPSSLSVSLGDRVTISCSASQDIRNNLNWYQQKPGQAPRLLIYYSSNLQTGVPARFSGSGSGTDFTLTISRLEPEDVAAYYCQQSIKLPFTFGSGTKVEIK
# notes: Fab made in E. coli; also called X377 Fab
# B2: Fab comprising X378 VL and CM03 VH (Fab, V domains shown)
# VH: B1 VH
# VL: DIEMTQSPSSLSASAGERVTISCRASQGIRNSLNWYQQKPGQAPRLLIYYSSNLQTGVPSRFSGSGSGTDFTLTISRLQAEDFATYYCQQSNKLPFTFGSGTKVEIK
# notes: Fab made in E. coli
# B3: Fab comprising X379 VL and CM03 VH (Fab, V domains shown)
# VH: B1 VH
# VL: DILLTQSPSSLSATPGERATITCRASQGIRNNLNWYQQKPGQAPRLLIYYSSNLQSGVPSRFSGSGSGTDFTLTISRLQPEDVAAYYCQQSIKLPFTFGSGTKVEIK
# notes: Fab made in E. coli
# B4: Fab comprising X381 VL and CM03 VH (Fab, V domains shown)
# VH: B1 VH
# VL: B1 VL with L15P, D28G, N32S, Q55H, E79Q, P80A, V83F, A85T, F96L
# notes: Fab made in E. coli
# B5: Fab comprising X380 VL and CM03 VH (Fab, V domains shown)
# VH: B1 VH
# VL: B1 VL with L4M, L15A, D17E, V19A, N32S, Q55H, A85I, I92N, F96L
# notes: Fab made in E. coli
# B6: Fab comprising X376 VL and CM03 VH (Fab, V domains shown)
# VH: B1 VH
# VL: DILMTQSPSSLSASPGDRVTISCRASQDIRNNLNWYQQKPGQAPRLLIYYSSNLHSGVPDRFSGSGSGTDFTLTISRLEPEDFAAYYCQQSIKLPLTFGSGTKVEIK
# notes: Fab made in E. coli
# B7: Fab comprising X385 VH and CM03 VL (Fab, V domains shown)
# VH: EVQLVQSGGGVKQPGETLRLTCTASGFSLTTYGVHWVRQAPGKGLEWVGVIWGDGRTDYDAAFMSRVTISKDTSKSTAYLQMNSLRAEDTAVYYCMRNRHDWFDYWGQGTTVTVSS
# VL: DIQMTQSPSSLSASLGDRVTITCSASQGIRNSLNWYQQKPDGAVKLLIYYSSNLHSGVPSRFSGSGSGTDFSLTISNLEPEDIATYYCQQSIKLPFTFGSGTKLEIK
# notes: Fab made in E. coli
# B8: Fab comprising X386 VH and CM03 VL (Fab, V domains shown)
# VH: B7 VH with Q6E, G9A, K12E, E16G, V48M, K71R, M82L, M96V
# VL: B7 VL
# notes: Fab made in E. coli
# B9: Fab comprising X384 VH and CM03 VL (Fab, V domains shown)
# VH: B7 VH with Q6E, G9A, E16G, A78V
# VL: B7 VL
# notes: Fab made in E. coli
# B10: Fab comprising X388 VH and CM03 VL (Fab, V domains shown)
# VH: B7 VH with V11L, T21S, F27Y, V48M, A61S, A62S, M82L, M96T
# VL: B7 VL
# notes: Fab made in E. coli
# B11: Fab comprising X387 VH and CM03 VL (Fab, V domains shown)
# VH: EVQLVESGAELVQPGGSLRLTCKASGFTLNTYGVHWVRQAPGKGLEWMGVIWGGGRTDYDASFMSRVTISKDNSKNTAYLQLNSLRAEDTAVYYCTRSRHDWFDYWGQGTTVTVSS
# VL: B7 VL
# notes: Fab made in E. coli
# B12: Fab X430 (X399 VH and X394 VL) (Fab, V domains shown)
# VH: B7 VH with T30S, A78V
# VL: B6 VL with H55Q, S56T, D60A
# notes: also called Fab X429
# B13: Fab X390 (X385 VH and X376 VL) (Fab, V domains shown)
# VH: B7 VH
# VL: B6 VL
# notes: Fab made in E. coli
# B14: Fab X391 (X388 VH and X376 VL) (Fab, V domains shown)
# VH: B7 VH with V11L, T21S, F27Y, V48M, A61S, A62S, M82L, M96T
# VL: B6 VL
# notes: Fab made in E. coli
# B15: Fab X393 (X385 VH and X379 VL) (Fab, V domains shown)
# VH: B7 VH
# VL: B3 VL
# notes: Fab made in E. coli
# B16: Fab X396 (X385 VH and X380 VL) (Fab, V domains shown)
# VH: B7 VH
# VL: B1 VL with L4M, L15A, D17E, V19A, N32S, Q55H, A85I, I92N, F96L
# notes: Fab made in E. coli
# B17: Fab X399 (X399 VH and X380 VL) (Fab, V domains shown)
# VH: B7 VH with T30S, A78V
# VL: B1 VL with L4M, L15A, D17E, V19A, N32S, Q55H, A85I, I92N, F96L
# notes: Fab made in E. coli
# B18: Fab X431 (X420 VH and X380 VL) (Fab, V domains shown)
# VH: B7 VH with Q6E, T30S, A78V
# VL: B1 VL with L4M, L15A, D17E, V19A, N32S, Q55H, A85I, I92N, F96L
# notes: also called Fab X420
# B19: Fab X395 (X384 VH and X380 VL) (Fab, V domains shown)
# VH: B7 VH with Q6E, G9A, E16G, A78V
# VL: B1 VL with L4M, L15A, D17E, V19A, N32S, Q55H, A85I, I92N, F96L
# notes: Fab made in E. coli
# B20: Fab X389 (X384 VH and X376 VL) (Fab, V domains shown)
# VH: B7 VH with Q6E, G9A, E16G, A78V
# VL: B6 VL
# notes: Fab made in E. coli
# B21: Fab X392 (X384 VH and X379 VL) (Fab, V domains shown)
# VH: B7 VH with Q6E, G9A, E16G, A78V
# VL: B3 VL
# notes: Fab made in E. coli
# B22: Fab X394 (X384 VH and X394 VL) (Fab, V domains shown)
# VH: B7 VH with Q6E, G9A, E16G, A78V
# VL: B6 VL with H55Q, S56T, D60A
# notes: Fab made in E. coli
# B23: rhuMAb 410 (antibody, human IgG1, V domains shown)
# VH: B7 VH with V11L, T21S, F27Y, V48M, A61S, A62S, M82L, M96T
# VL: DILMTQSPSSLSASPGDRVTISCRASQDIRNNLNWYQQKPGQAPRLLIYYSSNLHSGVPDRFSGSGSGTDFTLTISRLEPEDFAAYYCQQSIKLPLTFGSGTKVEIKR
# Target: T1, Purified recombinant human CD26 (rhDipeptidyl peptidase IV), R&D Systems CAT #1180-SE (human, UniProt P27487 29-766)
# T1 construct: Bought recombinant protein; also called hu-CD26; soluble human CD26
# T1 sequence (P27487 29-766 limits assumed): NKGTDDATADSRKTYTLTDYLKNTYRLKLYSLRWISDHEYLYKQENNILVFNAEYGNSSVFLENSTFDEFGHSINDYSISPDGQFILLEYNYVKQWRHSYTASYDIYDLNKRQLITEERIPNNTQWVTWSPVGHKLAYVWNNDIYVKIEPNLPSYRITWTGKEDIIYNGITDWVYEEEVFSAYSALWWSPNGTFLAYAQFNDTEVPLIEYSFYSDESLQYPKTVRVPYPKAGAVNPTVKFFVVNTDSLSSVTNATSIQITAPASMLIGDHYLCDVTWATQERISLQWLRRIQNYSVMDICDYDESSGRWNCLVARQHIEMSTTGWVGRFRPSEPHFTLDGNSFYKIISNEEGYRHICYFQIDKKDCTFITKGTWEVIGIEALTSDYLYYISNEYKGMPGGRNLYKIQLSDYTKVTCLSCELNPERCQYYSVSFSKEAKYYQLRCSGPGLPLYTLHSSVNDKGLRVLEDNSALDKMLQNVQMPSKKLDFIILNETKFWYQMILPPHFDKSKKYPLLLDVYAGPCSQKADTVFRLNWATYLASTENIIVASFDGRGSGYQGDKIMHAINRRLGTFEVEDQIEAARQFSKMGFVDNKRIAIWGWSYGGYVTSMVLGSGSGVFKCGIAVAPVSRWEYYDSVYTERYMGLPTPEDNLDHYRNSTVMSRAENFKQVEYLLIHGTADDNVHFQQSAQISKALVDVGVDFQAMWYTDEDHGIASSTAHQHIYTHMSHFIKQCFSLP
# Experiment: SPR (Biacore), Fab
# Protocol: (§1) Fabs produced in E. coli as described below were diluted in PBS in a concentration of ˜0.5 μM for the assay. A typical recording included a 3 minute period of injection of the Fab followed by a period of 15 minutes of dissociation, and analysis was performed based on the raw data of the binding curves accordingly.
# The CD26 binding partner was as shown below.
Binder,Kd,koff,kon
B1,1.88 nM,0.000596 s⁻¹,317000 M⁻¹ s⁻¹
B2,2.92 nM,0.00083 s⁻¹,285000 M⁻¹ s⁻¹
B3,1.16 nM,0.00067 s⁻¹,578000 M⁻¹ s⁻¹
B4,2.1 nM,0.000601 s⁻¹,293000 M⁻¹ s⁻¹
B5,2.33 nM,0.000687 s⁻¹,294000 M⁻¹ s⁻¹
B6,2.31 nM,0.000596 s⁻¹,258000 M⁻¹ s⁻¹

# Target: T1, Purified recombinant human CD26 …
# Experiment: SPR (Biacore), Fab
# Remark: another data set of the same source
# Protocol: as §1
Binder,Kd,koff,kon
B7,1.47 nM,0.000375 s⁻¹,256000 M⁻¹ s⁻¹
B8,2.71 nM,0.000498 s⁻¹,184000 M⁻¹ s⁻¹
B9,1.19 nM,0.000312 s⁻¹,262000 M⁻¹ s⁻¹
B10,2.98 nM,0.000698 s⁻¹,235000 M⁻¹ s⁻¹
B11,51.1 nM,0.01 s⁻¹,196000 M⁻¹ s⁻¹

# Target: T1, Purified recombinant human CD26 …
# Experiment: SPR (Biacore), Fab
# Remark: another data set of the same source
Binder,Kd,ratio of the Kd of CM03 Fab to the Kd of individual clone
B12,1.19 nM,1.37
B13,0.96 nM,1.7
B7,1.5 nM,
B14,2.12 nM,
B15,0.33 nM,4.94
B16,2.53 nM,
B17,2.85 nM,
B8,2.7 nM,
B18,0.92 nM,
B9,1.2 nM,
B10,3 nM,
B19,3.26 nM,0.5
B1,1.9 nM,
B2,2.9 nM,
B3,1.2 nM,
B4,2.1 nM,
B5,2.3 nM,
B6,2.3 nM,
B11,51 nM,
B20,0.38 nM,4.29
B21,0.24 nM,6.79
B22,0.58 nM,2.81

# Target: T1, Purified recombinant human CD26 …
# Experiment: SPR (Biacore), Fab
# Remark: another data set of the same source
row,Binder,Kd
1,B12,1.19 nM
2,B13,0.96 nM
3,B14,2.12 nM
4,B15,0.33 nM
5,B16,2.53 nM
6,B17,2.85 nM
7,B18,0.92 nM
8,B19,3.26 nM
9,B20,0.38 nM
10,B21,0.24 nM
11,B22,0.58 nM

# Target: human CD26 on the cell surface (human, UniProt P27487 1-766)
# Sequence (P27487 whole entry): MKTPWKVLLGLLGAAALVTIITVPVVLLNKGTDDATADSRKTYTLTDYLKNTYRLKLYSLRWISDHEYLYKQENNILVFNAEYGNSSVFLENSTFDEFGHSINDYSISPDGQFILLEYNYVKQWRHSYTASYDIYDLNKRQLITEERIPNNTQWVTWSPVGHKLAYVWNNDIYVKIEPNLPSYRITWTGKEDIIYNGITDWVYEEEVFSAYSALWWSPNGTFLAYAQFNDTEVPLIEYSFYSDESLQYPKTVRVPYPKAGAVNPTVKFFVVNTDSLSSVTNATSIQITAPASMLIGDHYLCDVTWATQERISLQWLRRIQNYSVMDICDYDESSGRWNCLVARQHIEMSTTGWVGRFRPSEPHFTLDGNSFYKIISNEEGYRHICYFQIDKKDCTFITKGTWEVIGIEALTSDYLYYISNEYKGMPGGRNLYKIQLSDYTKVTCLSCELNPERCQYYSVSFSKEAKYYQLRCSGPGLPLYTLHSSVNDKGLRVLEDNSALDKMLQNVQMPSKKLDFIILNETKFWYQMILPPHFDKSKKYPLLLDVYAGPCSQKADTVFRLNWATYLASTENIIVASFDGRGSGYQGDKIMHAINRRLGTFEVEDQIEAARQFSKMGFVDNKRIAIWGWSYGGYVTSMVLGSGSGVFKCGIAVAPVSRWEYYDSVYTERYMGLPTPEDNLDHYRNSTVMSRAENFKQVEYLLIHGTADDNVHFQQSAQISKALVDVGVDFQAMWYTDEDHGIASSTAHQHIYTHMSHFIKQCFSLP
# Experiment: cell-based or functional assay
Binder,"percent inhibition, MTT assay, Jurkat CD26+ cells, 0.05 ug/ml","percent inhibition, MTT assay, Jurkat CD26+ cells, 0.25 ug/ml","percent inhibition, MTT assay, Jurkat CD26+ cells, 0.5 ug/ml","percent inhibition, MTT assay, Jurkat CD26+ cells, 2.5 ug/ml","percent inhibition, MTT assay, Jurkat CD26+ cells, 5 ug/ml"
B23,4%,10.7%,14%,27.5%,33.5%

# Target: T1, Purified recombinant human CD26 …
# Experiment: SPR (Biacore), CD26 preoccupied by the Fab; competitor 14D10 ascites
# Source text: A specificity analysis of selected Fabs comprising pairs of variant VH and VL sequences was done. […] The analysis was done using Biacore® as described in Example 1.
row,Binder,percent decrease in binding of 14D10 to CD26
1,B13,≥ 80%
2,B14,≥ 80%
3,B15,≥ 80%
4,B16,≥ 80%
5,B19,≥ 80%
6,B20,≥ 80%
7,B21,≥ 80%
